Data as given in the nanobody polyreactivity screen of Harvey et al. (2022).

assay: yeast display, Sf9 membrane polyspecificity reagent, FACS + sequencing; frameworks hold sequencing errors
Procedure, shortened: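 After 36–48 hours of galactose induction, yeast (Saccharomyces cerevisiae BJ5465) displaying a synthetic nanobody library were stained at 4 °C for 1 hour with 10% biotinylated, detergent-solubilized Sf9 membrane reagent. Streptavidin microbeads enriched the stained cells before FACS sorting into low and high (top ~1%) gates on anti-HA and streptavidin fluorescence. Each clone's polyreactivity label reflects its gate of origin.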

Sequence	polyreactivity (PSR sort gate)
QVQLVESGGGLVQAGGSLRISCAASGFTFYRYAMGWYRPAPGKERELVASIRRSDGSTSYADSVKGRFTISRDNAKNTFYLQMNSLKPEDTAVYYCAARYAGSSRYDYWGQGTQVTVSS	high polyreactivity
QVQLVESGGGLVQAGGSLRISCAASGFTFYYNAMGCYRQAPVKERELVAIRFRGGNTYYAYSVKGRFTISRDNAKITVYLQMNSLKPEDTAVYYCTADDRGSTYVYFDYWGQGTQVTVSS	low polyreactivity
QVQLVESGGGLVQAGGSLRISCAASGGTFHRYAMGWYRQAPGKERELVAAISGSGASTYYADSVKGRFTISRDNAKNTVYLQMNSLKPEDTAVYYCNAYYYPYWYRYYYWGQGTQVTVSS	high polyreactivity
QVQLVESGGGLVQAGGSLRISCAASGIILSDNAMGWYRQAPGKEREFVAAITGSGGSTYYADSVKGRFTISRDNAKNTVYLQMNSLKPEDTAVYYCAADGPYGYYYGHYGYWGQGTQVTVSS	low polyreactivity
QVQLVESGGGLVQAGGSLRISCAASGITFRWYAMGWYRQAPGKERELVAGINSSGGSTNYADSVKGRFTISRDNAKNTVYLQMNSLKPADTAVYYCNADLRSEYDYWGQGTQETVSS	low polyreactivity
QVQLVESGGGLVQAGGSLRISCAASGITFTGYAMGWYRQAPGKEKELVAAIRGGGNTYYADSVKGRFTISRDNAKNTVYLQMNSLKPEDTAVYYCATSYASYTYWYDYWGQGTQVTVSS	low polyreactivity
QVQLVESGGGLVQAGGSLRISCAASGITITSYAMGWYRQAPGKEWELVASIDSDDSTNYADSVKGRFTISRDNAKNTVYFQMNSLKPEDNAVYYSAATSKPLGLKTYGYWGQGTQVTVSS	low polyreactivity
QVQLVESGGGLVQAGGSLRISCAASGITLYDNVMGWYRQAPGKERELVAAISSSGTTKYYADSVKGRFTMSRDHANNTVYLQMNSLKPEDTAGSYCAADGITWYAIAYYYWGQGTQVTVSS	high polyreactivity
QVQLVESGGGLVQAGGSLRISCAASGITLYFYAMGWYRQAPGKERELVAGISGSVGSTHYADSVKGRFSISRDNAKNTVYLQMNSLKPEDTAVYYCAARALTWSRVPRYNYWGQGTQVTVSS	high polyreactivity
QVQLVESGGGLVQAGGSLRISCAASGLTFEVYAMGWYRQAPGIERELVATITYSGGITYYADSVKGRFTISRDNAKNTVYLQMNSLKPEDTAVYYRIGFGGDYDYWGQGTQVTVSS	low polyreactivity
QVQLVESGGGLVQAGGSLRISCAASGLTFGKYAMGWYRQEPGKERELVAAISWSVTSTYYADSVKGRFTISRDNAKNTVYLQMNSLKPEDTAVYYCAAEIIKLAYRVAYYYWGQGTQVTVSS	high polyreactivity
QVQLVESGGGLVQAGGSLRISCAASGLTSVTYAMGWYRQAPGKERELVAAITSRAGSTYYADSVKGRFTISRDNAKNTVYLQMNSLKPEDTAVYYCAKDIIRKVYAGYVGRYDYWGQGTQVTVSS	low polyreactivity
QVQLVESGGGLVQAGGSLRISCAASGNIFGIYTMGWYRQAPGKEREFFAVISLSGTSTYYADSVKGRFTISRDNAKNTVYLQMNSLKPEDTAVYYCNARTPHNKGRRRAYDYWGLGTQVTVSS	high polyreactivity
QVQLVESGGGLVQAGGSLRISCAASGNIFPYYAMGWYRQAPGKERELVATITRGGRTNYADSVKGRFTISRDNAKNTVYLQMNSLKPEDTAVYYCASYSYTLTYRFDYWGQGTQVTVSS	low polyreactivity
QVQLVESGGGLVQAGGSLRISCAASGNIFSVNAMGWYRQAPGKEREFVAAISGSGGSTYYADSVKGRFTISRDNAKNTVYLQMNSLKPEDTAVYYCAKRWYHPSSLPRYVFRGVDYWGQGTQVTVSS	high polyreactivity
QVQLVESGGGLVQAGGSLRISCAASGRIFANYAMGWYRQAPGKEMELVAAITTNGGGTYYADSVKVRFTISRDNAKNTVYLQMKSLIPEDTAVYYCIAVKQRSSIFDYWGQGTQLTVSS	low polyreactivity
QVQLVESGGGLVQAGGSLRISCAASGRIFNINAMGWYRPAPGKERELVAAITWRSGSTYYADSVKGRFTISRDNAKNTVYLHMNSLKPEDTAVYYCAADFSQTRRPIRFYYWGQGSQVTVSS	high polyreactivity
QVQLVESGGGLVQAGGSLRISCAASGRIFSFYAMGWYRQAPGKERELVAAISYSDGSTYYADSVKGRFTISRDNAKNTVYLQMNSLKPEDTAVYYCAKYGYDHDYNYWGQGTQVTVSS	low polyreactivity
QVQLVESGGGLVQAGGSLRISCAASGRIFSGNAMGWYRQAPGKERELVAAISSGGSTYYADSVKGRFTISRYNAMNTVFLQMNILKPEDTAVYYCKKSRGRKWRGNYSVVKLLMGYWGQGSQVTVSS	low polyreactivity
QVQLVESGGGLVQAGGSLRISCAASGRIFSYNDMGWYRPAPGKERELVAAITGGGSTNYADSVKGRFTISRDNAKNTVYLQMNSLKPEDTAVYYCAARSWSDKYWGQGTQVTVSS	high polyreactivity
QVQLVESGGGLVQAGGSLRISCAASGRIFVSNAAMGWYIQAPGKESELVAAITSRGGRTTYADSVKGRFTSSRDNAKNTVYLQMNSLKPEDTAVYYCAARVRGYDWVRGSPFHHNYWGQGTQVTVSS	high polyreactivity

Sequence	polyreactivity (PSR sort gate)
QVQLVESGGGLVQAGGSLRISCAASGRIFWTYAMGSYRQAPGKERELVAAITWRGGSTSYADSVKGRFTISRDNAKNTVYLQMNSLKPEDTAVYYCAADTYSYLRGTYEYDYWGQGTQVTVSS	high polyreactivity
QVQLVESGGGLVQAGGSLRISCAASGRIFYCYVMGWYRQAPGKERELVAAINLSGTSTYYADSVKGRFTISRDNAKNTVYLQMNSLKPEDTAVYYCAADQVGWTYDYWGQGTQVTVSS	low polyreactivity
QVQLVESGGGLVQAGGSLRISCAASGRILGKYAMGWYRQAPGKESELVAAIRLRGGSTYYADSVKGRFTISRDNEKNSVYLQMNSLKPEDTAVYYCAARYWDRSQAYNDWGQGTQVTVSS	high polyreactivity
QVQLVESGGGLVQAGGSLRISCAASGRISVFNVMGWYIQAPGKERELVAAITSGGSTKYADSVKGRFTISRDNAKNTVYLQMNSLKPEDTAVYYCAALYQFHGKIWDGDYWGQGTQVTVSS	low polyreactivity
QVQLVESGGGLVQAGGSLRISCAASGRIYYRYAMGWYRQAPGKERELVASISGSGGRTYYADSVKGRFTISRDNAKNTVYLQMNSLKPEDTAVYYCAARIRPSYDWGQGTQVTVSS	high polyreactivity
QVQLVESGGGLVQAGGSLRISCAASGRNYSYYAMGWYREAPGKERELVAAITYSGGSTYYADSVKGRFTITRDNAKNTVYLQMNSLKPEDTAVYYCAAGLSIYYWGQGTQVTVSS	low polyreactivity
QVQLVESGGGLVQAGGSLRISCAASGRSFGVNAMGWYRQAPGKERELVAVISSGGSTYYADSVKVRFTISRDNAKNTVYLQMNSLKPEDTAVYYCNAVFGRWFPYNLSDYWGQGTQVTVSS	low polyreactivity
QVQLVESGGGLVQAGGSLRISCAASGRTFALNAMGWYRQAPGKERELVAAISSGGSTYYADSVKGRFTISRDNAKNTVYLQMNSLKPEDTAVYYCAKTSFKYRWSYPVISMDYWGQGTQVTVSS	high polyreactivity
QVQLVESGGGLVQAGGSLRISCAASGRTFDHYAMGWYRPAPGKERELVAAISFSGGSTYYADSVKGRLTISRDNAKNTVYLQMNRLKPEDTAVYYCAADYAYWLSGYDYWGQGTQVTVSS	low polyreactivity
QVQLVESGGGLVQAGGSLRISCAASGRTFDYNAMGWYRQAPGKERELVAAIRFGGGSTYYADSVKGRFTISRDNAKNTVYFQMNSLKPEDTAVYYCNASPLWIGWEIVPVGSSHYDYWGQGTQVTVSS	low polyreactivity
QVQLVESGGGLVQAGGSLRISCAASGRTFFFNAMGWYRQAPGKERELVAAISRTGRTNYADSVKGRFTISRDHAKNTVYLQMNSLKPEDTAVYYCAKTSYYLFGYWGHGTQVTVSS	high polyreactivity
QVQLVESGGGLVQAGGSLRISCAASGRTFGANAMGWYRQAPGKERELVAGITSSGGSTSYADSVKGRFTISRDNAKNTVYLQMNSLKPEDTAVYYCAKDVYQHIFDVILGGYDSWGLGTQVTVSS	low polyreactivity
QVQLVESGGGLVQAGGSLRISCAASGRTFGIYAMGWYIKGPGKERELVADITIGGSTFYADSVKGRFTISRDNAKNTVYLPMNSLKPEDTAVYYCYDDVVVQYYFTYYRFFTYDYWGQGTQVTVSS	low polyreactivity
QVQLVESGGGLVQAGGSLRISCAASGRTFGYYGMGWSRQAPGKERELVAGITSRGGSTYYADSVKGRFTISRDNAKNTVYLQMNSLKPEDTAVYYCNAQYARKYGFWTAYDYWGQGTQVTVSS	high polyreactivity
QVQLVESGGGLVQAGGSLRISCAASGRTFKNYSMGWYRQAPGKERELVAAITSGGITNYADSVKGRFTISRDNAKNTVYLQMNRLKPEDTAVYYCNTRRGWRDFDYWGQGTQVTVSS	low polyreactivity
QVQLVESGGGLVQAGGSLRISCAASGRTFRPYPMGWYRQAPGKDRELVAAIDSSGTSTYYADSVKGRFTISRDNAKNTVYLQMNSLKPEDTAVYYCAKAWPDHWYSRYDYWGQGTQVTVSS	low polyreactivity
QVQLVESGGGLVQAGGSLRISCAASGRTFVGNAMGWYRQAPGKERELVAAMTLSDGSTYYADSVKGRFTISRDIAMNTVYLQMNSLKPEDTAVYYCNAGDGPDEEYDYWGQVTQVTVSS	low polyreactivity
QVQLVESGGGLVQAGGSLRISCAASGRTFYANAMGWYRQAPGKERELVAAISSNGGSTYYADSVKGRFTISRDNAKNTVYLQMNSLKPEDTAVYYCAVVSRYIAWRKYDYCGQGTQVTVSS	high polyreactivity
QVQLVESGGGLVQAGGSLRISCAASGRTFYGYTMGWDRQAPGKERELVAAISRNGASTFYADSVKGRFTISRDNAKNTVYLQMNSLKPEDTAVYYCNARSWRHTDTSFEYWGQGTQVTVSS	high polyreactivity
QVQLVESGGGLVQAGGSLRISCAASGRTFYINAMGWYRQAPGKVWELVASISRSGGGTYYADSVKGRFTISRDNAKNNVYLQMNCLKPEDTAVYYCAAYSWSYSGYNFWGQGTQVTVSS	high polyreactivity
